This is an account of results in patent publication US20160031978.

The series deals with Δ144-273 tau (full-length tau with deletion of amino acids 144-273) (UniProt P10636).
Chain of Δ144-273 tau (full-length tau with deletion of amino acids 144-273) (P10636 whole entry, looked up, stated change not applied, the tested form may be a part): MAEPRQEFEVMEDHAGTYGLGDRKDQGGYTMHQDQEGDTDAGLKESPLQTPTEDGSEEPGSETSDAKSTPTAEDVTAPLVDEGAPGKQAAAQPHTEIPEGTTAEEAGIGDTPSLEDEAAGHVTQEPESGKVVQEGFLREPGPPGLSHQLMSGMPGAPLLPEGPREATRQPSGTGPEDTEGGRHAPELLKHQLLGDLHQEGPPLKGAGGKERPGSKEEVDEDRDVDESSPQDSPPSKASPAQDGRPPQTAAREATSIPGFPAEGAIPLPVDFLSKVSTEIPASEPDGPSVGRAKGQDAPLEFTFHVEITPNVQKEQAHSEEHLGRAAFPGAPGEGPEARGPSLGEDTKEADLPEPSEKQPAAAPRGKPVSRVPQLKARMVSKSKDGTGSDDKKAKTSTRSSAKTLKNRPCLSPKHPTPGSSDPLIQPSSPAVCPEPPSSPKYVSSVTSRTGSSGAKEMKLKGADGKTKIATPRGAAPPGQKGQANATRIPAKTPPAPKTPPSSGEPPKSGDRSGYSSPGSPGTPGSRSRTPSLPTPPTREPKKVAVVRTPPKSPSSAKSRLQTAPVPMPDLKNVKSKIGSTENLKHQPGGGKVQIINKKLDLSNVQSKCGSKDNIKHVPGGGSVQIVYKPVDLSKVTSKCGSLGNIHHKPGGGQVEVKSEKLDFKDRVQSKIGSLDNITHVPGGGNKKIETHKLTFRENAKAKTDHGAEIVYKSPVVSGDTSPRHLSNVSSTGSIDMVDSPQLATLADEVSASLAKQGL

In the case of active fyn kinase, the “in vitro phosphorylation at Tyr18 (9G3/R1 immunoblot ratio)” value was “When compared to wild-type tau, AT8 tau and A144-273 tau had a slower rate and lower maximal level of phosphorylation at Tyr18”.
